{"source": "patent US10500249B2", "about": "“Compositions and methods for preventing or treating diseases, conditions, or processes characterized by aberrant fibroblast proliferation and extracellular matrix deposition” (MOERAE MATRIX, INC., priority 2014, dated 2019)", "assay_in_all_cases": "Kinase Profiling Assay", "assay_type_in_all_cases": "biochemical", "details_in_all_cases": "100 μM", "key": {"GSK3β (h)": {"biological_target": "T1, GSK3β (h) (Homo sapiens, UniProt P49841)", "T1 construct": "purchased Millipore", "method_in_brief": "(§1)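 Kinase inhibition by MK2 inhibitory peptides was profiled radiometrically, with substrate phosphorylation from labeled ATP read by scintillation after capture on a charged filter. Values are relative to 100% activity and measured in duplicate.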"}, "MSSK1 (h)": {"biological_target": "T2, MSSK1 (h) (Homo sapiens, UniProt Q9UPE1)", "T2 construct": "purchased Millipore", "method_in_brief": "as §1"}, "cKit(D816H) (h)": {"biological_target": "T3, cKit(D816H) (h) (Homo sapiens, UniProt P10721, D816H)", "T3 construct": "purchased Millipore", "method_in_brief": "as §1"}, "SRPK1 (h)": {"biological_target": "SRPK1 (h) (Homo sapiens, UniProt Q96SB4)", "sequence (Q96SB4 whole entry)": "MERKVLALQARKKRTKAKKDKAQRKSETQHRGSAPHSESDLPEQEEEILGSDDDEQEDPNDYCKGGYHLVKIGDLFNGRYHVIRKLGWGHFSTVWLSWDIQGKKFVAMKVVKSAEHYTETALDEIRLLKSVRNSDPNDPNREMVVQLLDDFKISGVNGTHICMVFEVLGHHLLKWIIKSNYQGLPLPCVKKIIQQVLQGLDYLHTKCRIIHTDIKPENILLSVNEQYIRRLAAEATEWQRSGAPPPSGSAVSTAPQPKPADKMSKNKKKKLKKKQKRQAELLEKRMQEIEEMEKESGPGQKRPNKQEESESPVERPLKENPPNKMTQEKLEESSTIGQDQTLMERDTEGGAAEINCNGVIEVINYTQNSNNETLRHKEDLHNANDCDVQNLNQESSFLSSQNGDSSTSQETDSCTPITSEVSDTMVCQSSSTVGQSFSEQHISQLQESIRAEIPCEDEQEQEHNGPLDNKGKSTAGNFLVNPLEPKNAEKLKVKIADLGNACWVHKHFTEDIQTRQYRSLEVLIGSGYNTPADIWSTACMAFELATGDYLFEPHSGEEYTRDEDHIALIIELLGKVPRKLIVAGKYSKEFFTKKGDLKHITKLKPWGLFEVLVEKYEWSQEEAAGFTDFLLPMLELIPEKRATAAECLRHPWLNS", "method_in_brief": "as §1"}, "CLK3 (h)": {"biological_target": "T4, CLK3 (h) (Homo sapiens, UniProt P49761)", "T4 construct": "purchased Millipore", "method_in_brief": "as §1"}, "LKB1 (h)": {"biological_target": "T5, LKB1 (h) (Homo sapiens, UniProt Q15831)", "T5 sequence (Q15831 1-433)": "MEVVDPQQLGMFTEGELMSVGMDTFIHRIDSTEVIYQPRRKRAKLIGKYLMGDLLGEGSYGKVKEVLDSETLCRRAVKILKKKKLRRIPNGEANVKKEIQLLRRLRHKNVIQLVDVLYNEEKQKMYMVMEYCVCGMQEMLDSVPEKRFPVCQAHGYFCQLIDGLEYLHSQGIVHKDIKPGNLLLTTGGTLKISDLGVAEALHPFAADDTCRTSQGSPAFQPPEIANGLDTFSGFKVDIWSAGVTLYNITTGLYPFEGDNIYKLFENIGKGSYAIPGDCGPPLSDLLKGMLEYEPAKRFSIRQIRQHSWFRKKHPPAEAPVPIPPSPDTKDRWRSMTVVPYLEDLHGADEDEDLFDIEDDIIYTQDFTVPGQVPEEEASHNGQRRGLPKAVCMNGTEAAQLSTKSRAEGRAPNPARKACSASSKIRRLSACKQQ", "T5 sequence (Q7RTN6 1-431 partner)": "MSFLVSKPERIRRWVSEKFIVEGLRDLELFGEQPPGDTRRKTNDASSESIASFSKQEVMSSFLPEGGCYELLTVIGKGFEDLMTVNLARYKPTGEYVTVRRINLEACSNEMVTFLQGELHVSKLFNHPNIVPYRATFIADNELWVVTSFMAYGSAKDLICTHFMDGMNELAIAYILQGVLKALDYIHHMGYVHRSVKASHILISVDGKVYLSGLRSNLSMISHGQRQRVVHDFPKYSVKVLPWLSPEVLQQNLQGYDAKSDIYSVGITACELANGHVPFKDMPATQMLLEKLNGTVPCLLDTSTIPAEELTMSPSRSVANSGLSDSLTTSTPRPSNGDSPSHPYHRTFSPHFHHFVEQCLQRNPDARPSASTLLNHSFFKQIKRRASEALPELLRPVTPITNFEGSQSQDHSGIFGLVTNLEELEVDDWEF", "T5 sequence (Q9Y376 1-341 partner)": "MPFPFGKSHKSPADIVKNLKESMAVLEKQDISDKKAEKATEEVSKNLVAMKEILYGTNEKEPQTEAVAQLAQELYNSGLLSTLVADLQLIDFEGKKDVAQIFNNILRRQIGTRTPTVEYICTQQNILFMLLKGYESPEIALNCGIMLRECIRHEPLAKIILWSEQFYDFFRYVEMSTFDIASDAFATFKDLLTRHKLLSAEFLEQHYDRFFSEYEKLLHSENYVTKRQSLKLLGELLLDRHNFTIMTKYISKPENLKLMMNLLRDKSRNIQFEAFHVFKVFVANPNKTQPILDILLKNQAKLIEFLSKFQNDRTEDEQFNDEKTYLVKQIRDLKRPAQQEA", "method_in_brief": "as §1"}, "Tie2 (h)": {"biological_target": "Tie2 (h) (Homo sapiens, UniProt Q02763)", "sequence (Q02763 23-1124)": "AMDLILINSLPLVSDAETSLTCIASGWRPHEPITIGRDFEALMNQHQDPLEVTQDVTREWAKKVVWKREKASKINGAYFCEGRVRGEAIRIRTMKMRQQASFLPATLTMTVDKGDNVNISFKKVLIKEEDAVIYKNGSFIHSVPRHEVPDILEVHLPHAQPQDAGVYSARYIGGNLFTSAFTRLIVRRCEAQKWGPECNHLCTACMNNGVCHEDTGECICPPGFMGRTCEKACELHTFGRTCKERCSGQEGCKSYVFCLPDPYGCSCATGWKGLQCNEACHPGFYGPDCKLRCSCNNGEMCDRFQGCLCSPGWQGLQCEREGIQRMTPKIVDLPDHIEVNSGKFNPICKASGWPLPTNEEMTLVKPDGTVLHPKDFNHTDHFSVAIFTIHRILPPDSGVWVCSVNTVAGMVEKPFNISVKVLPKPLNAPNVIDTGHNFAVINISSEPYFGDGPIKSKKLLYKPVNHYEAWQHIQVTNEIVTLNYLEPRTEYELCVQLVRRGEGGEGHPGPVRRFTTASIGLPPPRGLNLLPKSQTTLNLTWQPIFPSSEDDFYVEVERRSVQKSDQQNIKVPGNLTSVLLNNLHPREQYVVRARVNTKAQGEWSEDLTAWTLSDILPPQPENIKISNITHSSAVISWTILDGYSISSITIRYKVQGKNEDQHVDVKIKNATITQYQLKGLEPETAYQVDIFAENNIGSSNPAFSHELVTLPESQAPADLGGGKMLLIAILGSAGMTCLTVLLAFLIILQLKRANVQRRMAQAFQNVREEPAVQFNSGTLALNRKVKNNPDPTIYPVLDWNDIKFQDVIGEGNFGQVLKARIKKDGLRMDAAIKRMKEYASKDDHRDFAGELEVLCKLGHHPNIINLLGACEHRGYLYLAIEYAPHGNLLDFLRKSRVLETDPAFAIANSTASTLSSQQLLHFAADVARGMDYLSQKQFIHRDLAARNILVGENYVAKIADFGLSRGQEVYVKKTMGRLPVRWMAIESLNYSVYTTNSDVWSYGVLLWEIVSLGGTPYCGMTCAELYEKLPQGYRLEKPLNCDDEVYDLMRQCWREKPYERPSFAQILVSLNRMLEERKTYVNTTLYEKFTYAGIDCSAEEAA", "method_in_brief": "as §1"}, "JNK3 (h)": {"biological_target": "JNK3 (h) (Homo sapiens, UniProt P53779)", "sequence (P53779 whole entry)": "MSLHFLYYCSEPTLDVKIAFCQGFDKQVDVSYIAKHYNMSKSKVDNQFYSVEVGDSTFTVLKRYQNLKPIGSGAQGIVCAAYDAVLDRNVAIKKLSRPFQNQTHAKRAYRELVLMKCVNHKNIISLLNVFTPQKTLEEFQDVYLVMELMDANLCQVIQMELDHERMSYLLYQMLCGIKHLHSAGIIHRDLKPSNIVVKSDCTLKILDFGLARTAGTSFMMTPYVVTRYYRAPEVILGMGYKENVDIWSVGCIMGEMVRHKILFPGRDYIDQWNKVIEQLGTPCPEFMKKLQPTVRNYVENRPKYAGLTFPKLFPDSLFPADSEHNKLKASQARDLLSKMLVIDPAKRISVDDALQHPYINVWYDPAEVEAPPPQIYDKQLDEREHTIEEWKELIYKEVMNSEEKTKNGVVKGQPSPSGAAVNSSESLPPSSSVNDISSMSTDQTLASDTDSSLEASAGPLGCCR", "method_in_brief": "as §1"}, "Met(D1246H) (h)": {"biological_target": "Met(D1246H) (h) (Homo sapiens, UniProt P08581, D1228H)", "method_in_brief": "as §1"}, "FAK (h)": {"biological_target": "FAK (h) (Homo sapiens, UniProt Q05397)", "sequence (Q05397 whole entry)": "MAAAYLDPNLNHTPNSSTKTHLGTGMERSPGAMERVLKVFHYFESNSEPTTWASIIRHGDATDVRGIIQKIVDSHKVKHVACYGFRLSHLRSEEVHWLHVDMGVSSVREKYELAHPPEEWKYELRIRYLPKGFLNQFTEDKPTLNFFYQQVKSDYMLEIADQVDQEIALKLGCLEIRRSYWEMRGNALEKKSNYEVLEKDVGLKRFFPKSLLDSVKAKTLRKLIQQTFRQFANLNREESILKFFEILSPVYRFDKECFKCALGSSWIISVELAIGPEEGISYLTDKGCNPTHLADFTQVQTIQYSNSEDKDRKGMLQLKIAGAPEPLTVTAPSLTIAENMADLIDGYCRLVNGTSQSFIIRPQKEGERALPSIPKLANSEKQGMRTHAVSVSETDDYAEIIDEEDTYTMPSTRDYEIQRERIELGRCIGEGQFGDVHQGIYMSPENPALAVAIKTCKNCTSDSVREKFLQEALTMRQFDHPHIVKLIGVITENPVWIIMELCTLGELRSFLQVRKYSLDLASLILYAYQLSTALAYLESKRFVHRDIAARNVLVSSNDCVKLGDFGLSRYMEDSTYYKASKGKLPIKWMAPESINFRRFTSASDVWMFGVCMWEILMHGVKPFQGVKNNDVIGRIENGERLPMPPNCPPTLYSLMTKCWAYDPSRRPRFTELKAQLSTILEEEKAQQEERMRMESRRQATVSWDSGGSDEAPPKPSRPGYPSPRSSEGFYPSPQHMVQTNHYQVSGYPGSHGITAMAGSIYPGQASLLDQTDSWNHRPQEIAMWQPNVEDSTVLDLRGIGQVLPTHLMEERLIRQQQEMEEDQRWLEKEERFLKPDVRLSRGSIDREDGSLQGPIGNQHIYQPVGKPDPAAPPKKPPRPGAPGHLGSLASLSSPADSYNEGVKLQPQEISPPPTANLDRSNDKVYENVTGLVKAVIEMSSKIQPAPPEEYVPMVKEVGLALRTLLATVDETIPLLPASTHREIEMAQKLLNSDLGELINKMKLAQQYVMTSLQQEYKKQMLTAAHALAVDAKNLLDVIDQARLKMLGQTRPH", "method_in_brief": "as §1"}, "NEK2 (h)": {"biological_target": "T6, NEK2 (h) (Homo sapiens, UniProt P51955)", "T6 construct": "purchased Millipore", "T6 sequence (P51955 1-445)": "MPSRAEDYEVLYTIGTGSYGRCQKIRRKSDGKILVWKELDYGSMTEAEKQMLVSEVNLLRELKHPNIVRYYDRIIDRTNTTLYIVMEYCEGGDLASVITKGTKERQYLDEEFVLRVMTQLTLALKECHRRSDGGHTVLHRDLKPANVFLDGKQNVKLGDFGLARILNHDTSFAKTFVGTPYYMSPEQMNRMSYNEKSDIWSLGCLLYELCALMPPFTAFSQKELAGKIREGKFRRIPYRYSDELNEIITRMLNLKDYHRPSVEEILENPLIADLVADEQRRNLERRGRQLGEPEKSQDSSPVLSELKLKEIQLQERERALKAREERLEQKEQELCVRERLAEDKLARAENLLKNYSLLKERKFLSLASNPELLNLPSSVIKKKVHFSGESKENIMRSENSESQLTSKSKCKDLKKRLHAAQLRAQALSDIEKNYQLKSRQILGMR", "method_in_brief": "as §1"}, "Arg (h)": {"biological_target": "Arg (h) (Homo sapiens, UniProt P42684)", "sequence (P42684 whole entry)": "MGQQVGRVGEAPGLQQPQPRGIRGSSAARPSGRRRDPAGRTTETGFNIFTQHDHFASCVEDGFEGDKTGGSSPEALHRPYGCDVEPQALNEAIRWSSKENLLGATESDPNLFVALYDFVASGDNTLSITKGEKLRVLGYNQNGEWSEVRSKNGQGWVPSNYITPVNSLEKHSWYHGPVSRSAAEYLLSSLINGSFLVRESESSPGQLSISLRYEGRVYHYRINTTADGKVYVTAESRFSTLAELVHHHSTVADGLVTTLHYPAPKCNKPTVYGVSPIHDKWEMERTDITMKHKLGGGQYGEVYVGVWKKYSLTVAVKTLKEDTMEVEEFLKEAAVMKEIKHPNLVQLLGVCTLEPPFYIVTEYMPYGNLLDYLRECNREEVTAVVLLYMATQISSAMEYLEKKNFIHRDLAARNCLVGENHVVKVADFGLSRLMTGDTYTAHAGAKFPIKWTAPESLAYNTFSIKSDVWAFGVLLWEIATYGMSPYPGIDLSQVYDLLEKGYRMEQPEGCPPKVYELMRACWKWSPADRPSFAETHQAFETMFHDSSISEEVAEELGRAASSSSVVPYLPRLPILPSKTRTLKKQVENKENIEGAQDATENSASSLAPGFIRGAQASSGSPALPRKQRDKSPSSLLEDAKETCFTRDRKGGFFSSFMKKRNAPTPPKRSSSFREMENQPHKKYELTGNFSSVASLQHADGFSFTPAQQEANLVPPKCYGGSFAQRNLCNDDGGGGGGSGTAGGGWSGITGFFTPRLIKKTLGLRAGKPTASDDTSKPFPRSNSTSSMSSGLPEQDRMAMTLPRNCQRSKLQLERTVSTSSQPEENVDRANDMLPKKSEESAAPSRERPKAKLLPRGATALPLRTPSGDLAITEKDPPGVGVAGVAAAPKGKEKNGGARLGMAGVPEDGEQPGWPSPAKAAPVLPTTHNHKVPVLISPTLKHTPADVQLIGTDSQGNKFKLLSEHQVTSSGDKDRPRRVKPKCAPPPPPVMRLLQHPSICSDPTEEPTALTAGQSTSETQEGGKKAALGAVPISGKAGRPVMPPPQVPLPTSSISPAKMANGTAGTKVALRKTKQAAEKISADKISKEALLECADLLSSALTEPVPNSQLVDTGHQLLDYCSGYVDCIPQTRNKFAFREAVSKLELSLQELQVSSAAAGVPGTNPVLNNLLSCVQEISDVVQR", "method_in_brief": "as §1"}, "JAK2 (h)": {"biological_target": "T7, JAK2 (h) (Homo sapiens, UniProt O60674)", "T7 construct": "purchased Millipore", "method_in_brief": "as §1"}}, "data": [{"sequence": "KAFAKLAARLYRKALARQLGVAA [MMI-0400]", "values": [{"measurement": "% activity", "setting": "GSK3β (h)", "value": 202, "unit": "%"}, {"measurement": "% activity", "setting": "MSSK1 (h)", "value": 75, "unit": "%"}, {"measurement": "% activity", "setting": "cKit(D816H) (h)", "value": 143, "unit": "%"}, {"measurement": "% activity", "setting": "SRPK1 (h)", "value": 96, "unit": "%"}, {"measurement": "% activity", "setting": "CLK3 (h)", "value": 84, "unit": "%"}, {"measurement": "% activity", "setting": "LKB1 (h)", "value": 89, "unit": "%"}, {"measurement": "% activity", "setting": "Tie2 (h)", "value": 21, "unit": "%"}, {"measurement": "% activity", "setting": "JNK3 (h)", "value": 70, "unit": "%"}, {"measurement": "% activity", "setting": "Met(D1246H) (h)", "value": 68, "unit": "%"}, {"measurement": "% activity", "setting": "FAK (h)", "value": 96, "unit": "%"}, {"measurement": "% activity", "setting": "NEK2 (h)", "value": 61, "unit": "%"}, {"measurement": "% activity", "setting": "Arg (h)", "value": 84, "unit": "%"}]}, {"sequence": "YARAAARQARAKALNRQLGVA (Mammalian) [MMI-0200]", "values": [{"measurement": "% activity", "setting": "GSK3β (h)", "value": 132, "unit": "%"}, {"measurement": "% activity", "setting": "MSSK1 (h)", "value": 100, "unit": "%"}, {"measurement": "% activity", "setting": "SRPK1 (h)", "value": 93, "unit": "%"}, {"measurement": "% activity", "setting": "CLK3 (h)", "value": 76, "unit": "%"}, {"measurement": "% activity", "setting": "LKB1 (h)", "value": 99, "unit": "%"}, {"measurement": "% activity", "setting": "Tie2 (h)", "value": 53, "unit": "%"}, {"measurement": "% activity", "setting": "JNK3 (h)", "value": 90, "unit": "%"}, {"measurement": "% activity", "setting": "Met(D1246H) (h)", "value": 139, "unit": "%"}, {"measurement": "% activity", "setting": "JAK2 (h)", "value": 131, "unit": "%"}, {"measurement": "% activity", "setting": "FAK (h)", "value": 110, "unit": "%"}, {"measurement": "% activity", "setting": "NEK2 (h)", "value": 97, "unit": "%"}, {"measurement": "% activity", "setting": "Arg (h)", "value": 82, "unit": "%"}]}, {"sequence": "HRRIKAWLKKIKALARQLGVAA (Mammalian) [MMI-0500]", "values": [{"measurement": "% activity", "setting": "GSK3β (h)", "value": 238, "unit": "%"}, {"measurement": "% activity", "setting": "MSSK1 (h)", "value": 22, "unit": "%"}, {"measurement": "% activity", "setting": "cKit(D816H) (h)", "value": 194, "unit": "%"}, {"measurement": "% activity", "setting": "SRPK1 (h)", "value": 80, "unit": "%"}, {"measurement": "% activity", "setting": "CLK3 (h)", "value": 76, "unit": "%"}, {"measurement": "% activity", "setting": "LKB1 (h)", "value": 51, "unit": "%"}, {"measurement": "% activity", "setting": "Tie2 (h)", "value": 22, "unit": "%"}, {"measurement": "% activity", "setting": "JNK3 (h)", "value": 171, "unit": "%"}, {"measurement": "% activity", "setting": "Met(D1246H) (h)", "value": 150, "unit": "%"}, {"measurement": "% activity", "setting": "JAK2 (h)", "value": 49, "unit": "%"}, {"measurement": "% activity", "setting": "FAK (h)", "value": 94, "unit": "%"}, {"measurement": "% activity", "setting": "NEK2 (h)", "value": 0, "unit": "%"}, {"measurement": "% activity", "setting": "Arg (h)", "value": 22, "unit": "%"}]}, {"sequence": "FAKLAARLYRKALARQLGVAA [MMI-0300]", "values": [{"measurement": "% activity", "setting": "GSK3β (h)", "value": 205, "unit": "%"}, {"measurement": "% activity", "setting": "MSSK1 (h)", "value": 77, "unit": "%"}, {"measurement": "% activity", "setting": "cKit(D816H) (h)", "value": 126, "unit": "%"}, {"measurement": "% activity", "setting": "SRPK1 (h)", "value": 90, "unit": "%"}, {"measurement": "% activity", "setting": "CLK3 (h)", "value": 61, "unit": "%"}, {"measurement": "% activity", "setting": "LKB1 (h)", "value": 101, "unit": "%"}, {"measurement": "% activity", "setting": "Tie2 (h)", "value": 26, "unit": "%"}, {"measurement": "% activity", "setting": "JNK3 (h)", "value": 89, "unit": "%"}, {"measurement": "% activity", "setting": "Met(D1246H) (h)", "value": 125, "unit": "%"}, {"measurement": "% activity", "setting": "JAK2 (h)", "value": 133, "unit": "%"}, {"measurement": "% activity", "setting": "NEK2 (h)", "value": 78, "unit": "%"}, {"measurement": "% activity", "setting": "Arg (h)", "value": 72, "unit": "%"}]}]}
